In US20220267444A1 (CTTQ AKESO SHANGHAI BIOMED TECH, published 2022):
Residue numbers refer to the chain shown, from its start. Names may count otherwise. Each block holds one binder with its values, some of them ahead of it.

Assays:
Fc receptor FcγRIIb [1] = target: T1, Fc receptor FcγRIIb (human, UniProt P31994 43-217); assay: BLI (Fortebio Octet), hFcγRIIb-his immobilised on NTA sensor, antibody in solution at 12.5-200 nM
T1 construct: also called CD32b; hFcγRIIb-his; not shown: his tag named in 'hFcγRIIb-his'
T1 sequence (looked up): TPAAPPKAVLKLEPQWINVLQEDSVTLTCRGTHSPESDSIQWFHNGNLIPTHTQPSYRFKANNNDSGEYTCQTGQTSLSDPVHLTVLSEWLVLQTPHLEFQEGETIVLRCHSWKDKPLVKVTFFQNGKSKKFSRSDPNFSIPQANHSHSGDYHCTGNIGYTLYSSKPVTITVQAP
Method: (§1) 5 μg/mL hFcγRIIb-his was immobilized on the NTA sensor at an immobilization height of about 1.0 nm. The sensor was equilibrated in a buffer of 0.02% Tween-20, 0.02% casein and 0.1% BSA in PBS, pH 7.4 for 300 s of blocking, and the binding of the immobilized hFcγRIIb-his on the sensor to the antibodies at concentrations of 12.5-200 nM (serial two-fold dilution) was determined for 60 s. The antibody was dissociated in the buffer for 60 s. The sensor was refreshed in 10 mM glycine pH 1.7 and […] nickel sulfate. The temperature was 30° C. and the frequency was 0.6 Hz. The data were analyzed by 1:1 model fitting to obtain affinity constants.

[2] = target: T2, Fc receptor FcγRIIIa_F158 (UniProt P08637 17-208); assay: BLI (Fortebio Octet), FcγRIIIa_F158 immobilised on HIS1K sensor, antibody in solution at 31.25-500 nM
Method: (§2) 5 μg/mL FcγRIIIa_F158 was immobilized on the HIS1K sensor for 120 s. The sensor was equilibrated in a buffer for 60 s, and the binding of the immobilized FcγRIIIa_F158 on the sensor to the antibodies at concentrations of 31.25-500 nM (serial two-fold dilution) was determined for 60 s. The antibody was dissociated in the buffer for 60 s. The sensor was refreshed 4 times in 10 mM glycine pH 1.5, each for 5 s. The temperature was 30° C. and the frequency was 0.3 Hz. The data were analyzed by 1:1 model fitting to obtain affinity constants.

[3] = target: T3, Fc receptor FcγRIIIa_V158 (UniProt P08637 17-208); assay: BLI (Fortebio Octet); FcγRIIIa_V158 on HIS1K sensor, antibody 31.25-500 nM; 1:1 fit
Method: as §2, with “FcγRIIIa_V158” for “FcγRIIIa_F158”

[4] = target: T3, Fc receptor FcγRIIIa_V158; assay: BLI (Fortebio Octet); sentence on Table 2, differs from the table's 6.12E-07
Method: as §2, with “FcγRIIIa_V158” for “FcγRIIIa_F158”

Serum complement C1q [5] = target: T4, Serum complement C1q (UniProt P02745 23-245; P02746 28-253; P02747 29-245); assay: BLI (Fortebio Octet), antibody immobilised on FAB2G sensor, C1q in solution at 1.25-20 nM
Method: (§3) 50 μg/mL antibody was immobilized on the FAB2G sensor at an immobilization height of about 2.0 nm. The sensor was equilibrated in a buffer for 60 s for blocking, and the binding of the immobilized antibody on the sensor to the antigen C1q at concentrations of 1.25-20 nM (serial two-fold dilution) was determined for 60 s. The antigen and antibody were dissociated in the buffer for 60 s. The sensor was refreshed 4 times in 10 mM glycine pH 1.7, each for 5 s. The shaking speed of the sample plate was 1000 rpm, the temperature was 30° C. and the frequency was 0.6 Hz. The data were analyzed by 1:1 model fitting to obtain affinity constants. The data acquisition software was Fortebio Data Acquisition 7.0, and the data analysis software was Fortebio Data Analysis 7.0.

Fc receptor FcγRIIa_R131 = target: T5, Fc receptor FcγRIIa_R131 (UniProt P12318 34-218, limits assumed); assay: BLI (Fortebio Octet); FcγRIIa_R131 on NTA sensor, antibody 12.5-200 nM; 1:1 fit
T5 sequence (looked up): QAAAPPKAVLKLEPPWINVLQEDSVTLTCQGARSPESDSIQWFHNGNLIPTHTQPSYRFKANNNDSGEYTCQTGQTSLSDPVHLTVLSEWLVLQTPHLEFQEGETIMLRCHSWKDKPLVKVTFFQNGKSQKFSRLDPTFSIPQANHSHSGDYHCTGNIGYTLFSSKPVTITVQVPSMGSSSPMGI
Method: as §1, with “FcγRIIa_R131” for “hFcγRIIb-his”

Fc receptor FcγRI [6] = target: T6, Fc receptor FcγRI (UniProt P12314 16-288); assay: BLI (Fortebio Octet); FcγRI on HIS1K sensor, antibody 3.12-50 nM; 1:1 fit
T6 construct: also called CD64
Method: (§4) The Fc receptor FcγRI, also known as CD64, can bind to the Fc fragment of IgG antibodies and is involved in antibody-dependent cell-mediated cytotoxicity (ADCC). The binding capacity of a therapeutic monoclonal antibody to Fc receptors will influence the safety and efficacy of the antibody. […] A 1 μg/mL FcγRI solution (from Sinobio) was added to the HIS1K sensor to immobilize the FcγRI on the sensor surface for 50 s. The association and dissociation constants of the antibodies to FcγRI were both determined in the buffer with the antibody concentrations being 3.12-50 nM (serial two-fold dilution). The sensor with immobilized antigen was equilibrated in the buffer for 60 s, and then the binding of the immobilized FcγRI on the sensor to the antibodies was determined for 120 s; the dissociation of FcγRI from the antibodies was determined in 120 s. The temperature was 30° C. and the frequency was 0.3 Hz. The data were fitted and analyzed with a 1:1 model to obtain the affinity constants to FcγRI for the antibodies.

Fc receptor FcγRIIb [7] = target: T1, Fc receptor FcγRIIb; assay: BLI (Fortebio Octet); hFcγRIIb-his on NTA sensor, antibody 12.5-200 nM; 1:1 fit
Method: as §1

Fc receptor FcγRIIa_H131 [8] = target: T7, Fc receptor FcγRIIa_H131 (UniProt P12318 34-218, limits assumed); assay: BLI (Fortebio Octet); FcγRIIa_H131 on NTA sensor, antibody 12.5-200 nM; 1:1 fit
T7 sequence (looked up): T5 sequence (looked up) with R134H
Method: as §1, with “FcγRIIa_H131” for “hFcγRIIb-his”

[9] = target: T2, Fc receptor FcγRIIIa_F158; assay: BLI (Fortebio Octet); FcγRIIIa_F158 on HIS1K sensor, antibody 31.25-500 nM; 1:1 fit
Method: as §2

Serum complement C1q [10] = target: T4, Serum complement C1q; assay: BLI (Fortebio Octet); antibody on FAB2G sensor, C1q 1.25-20 nM; 1:1 fit
Method: as §3

Fc receptor FcγRI [11] = target: T6, Fc receptor FcγRI; assay: BLI (Fortebio Octet), FcγRI immobilised on HIS1K sensor, antibody in solution at 3.12-50 nM
Method: as §4

Fc receptor FcγRIIa_H131 [12] = target: T7, Fc receptor FcγRIIa_H131; assay: BLI (Fortebio Octet), FcγRIIa_H131 immobilised on NTA sensor, antibody in solution at 12.5-200 nM
Method: as §1, with “FcγRIIa_H131” for “hFcγRIIb-his”

[13] = target: T3, Fc receptor FcγRIIIa_V158; assay: BLI (Fortebio Octet), FcγRIIIa_V158 immobilised on HIS1K sensor, antibody in solution at 31.25-500 nM
Method: as §2, with “FcγRIIIa_V158” for “FcγRIIIa_F158”

T6 sequence (P12314 16-288 limits assumed): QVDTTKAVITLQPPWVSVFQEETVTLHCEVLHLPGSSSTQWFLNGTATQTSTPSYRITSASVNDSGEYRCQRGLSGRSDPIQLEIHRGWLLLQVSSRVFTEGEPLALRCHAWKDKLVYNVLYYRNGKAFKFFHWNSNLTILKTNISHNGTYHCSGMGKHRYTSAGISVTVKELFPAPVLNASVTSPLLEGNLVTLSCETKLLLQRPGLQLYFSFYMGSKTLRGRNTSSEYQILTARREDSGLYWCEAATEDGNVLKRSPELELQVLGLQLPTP
T2 sequence (P08637 17-208 limits assumed): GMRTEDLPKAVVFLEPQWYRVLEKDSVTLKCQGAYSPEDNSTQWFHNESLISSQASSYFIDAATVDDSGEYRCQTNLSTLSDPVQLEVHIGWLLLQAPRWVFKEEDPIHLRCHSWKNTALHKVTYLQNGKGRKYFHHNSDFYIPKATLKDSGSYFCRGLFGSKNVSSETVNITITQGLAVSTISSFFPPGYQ
T4 sequence (P02745 23-245 limits assumed, chain 1 of 3): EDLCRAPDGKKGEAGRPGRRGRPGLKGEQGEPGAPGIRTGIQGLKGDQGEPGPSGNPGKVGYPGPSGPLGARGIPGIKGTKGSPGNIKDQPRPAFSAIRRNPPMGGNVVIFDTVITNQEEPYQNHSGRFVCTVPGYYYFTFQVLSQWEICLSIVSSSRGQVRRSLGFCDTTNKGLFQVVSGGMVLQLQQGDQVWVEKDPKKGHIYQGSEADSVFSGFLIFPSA
T4 sequence (P02746 28-253 limits assumed, chain 2 of 3): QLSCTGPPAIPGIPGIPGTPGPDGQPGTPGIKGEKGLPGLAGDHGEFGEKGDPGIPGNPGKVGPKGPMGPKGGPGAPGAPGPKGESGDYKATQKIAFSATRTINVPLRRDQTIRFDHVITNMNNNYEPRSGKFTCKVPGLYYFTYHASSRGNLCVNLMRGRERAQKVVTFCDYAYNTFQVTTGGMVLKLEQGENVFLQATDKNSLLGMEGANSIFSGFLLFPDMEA
T4 sequence (P02747 29-245 limits assumed, chain 3 of 3): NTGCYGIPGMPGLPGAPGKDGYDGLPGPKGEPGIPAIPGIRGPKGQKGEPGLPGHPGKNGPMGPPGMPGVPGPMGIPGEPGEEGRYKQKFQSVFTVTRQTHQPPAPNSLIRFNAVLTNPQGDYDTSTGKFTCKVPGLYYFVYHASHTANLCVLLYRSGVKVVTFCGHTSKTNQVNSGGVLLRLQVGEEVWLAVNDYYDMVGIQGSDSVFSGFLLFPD
T3 sequence (P08637 17-208 F176V limits assumed): as the sequence (P08637 17-208 limits assumed) above, with F160V counted along it

Kd (Fc receptor FcγRIIa_R131): 232 nM
koff (Fc receptor FcγRIIa_R131): 0.0938 s⁻¹
kon (Fc receptor FcγRIIa_R131): 404000 M⁻¹ s⁻¹
binding result (Fc receptor FcγRI [11]): no binding (tested: 50 nM)
binding result (Fc receptor FcγRIIb [1]): no binding (tested: 200 nM)
binding result [2]: no binding (tested: 500 nM)
binding result (Fc receptor FcγRIIa_H131 [12]): no binding (tested: 200 nM)
binding result [13]: no binding (tested: 500 nM)
binding result (Serum complement C1q [5]): no binding (tested: 20 nM)
B4: 14C12H1L1(hG1TM) (antibody, human IgG1, kappa)
heavy: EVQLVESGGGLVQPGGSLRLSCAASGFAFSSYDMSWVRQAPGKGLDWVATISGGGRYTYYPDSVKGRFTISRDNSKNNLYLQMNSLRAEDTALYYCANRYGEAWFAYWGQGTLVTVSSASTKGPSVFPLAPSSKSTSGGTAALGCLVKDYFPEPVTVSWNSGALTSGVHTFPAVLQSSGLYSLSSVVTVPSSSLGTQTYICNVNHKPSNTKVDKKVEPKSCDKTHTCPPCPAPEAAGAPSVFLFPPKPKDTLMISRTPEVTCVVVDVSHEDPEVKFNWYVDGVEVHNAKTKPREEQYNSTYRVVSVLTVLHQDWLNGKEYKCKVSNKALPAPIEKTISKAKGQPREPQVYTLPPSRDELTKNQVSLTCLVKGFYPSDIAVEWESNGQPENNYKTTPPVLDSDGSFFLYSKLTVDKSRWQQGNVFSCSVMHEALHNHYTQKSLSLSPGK
light: DIQMTQSPSSMSASVGDRVTFTCRASQDINTYLSWFQQKPGKSPKTLIYRANRLVSGVPSRFSGSGSGQDYTLTISSLQPEDMATYYCLQYDEFPLTFGAGTKLELKRTVAAPSVFIFPPSDEQLKSGTASVVCLLNNFYPREAKVQWKVDNALQSGNSQESVTEQDSKDSTYSLSSTLTLSKADYEKHKVYACEVTHQGLSSPVTKSFNRGEC
notes: Humanized anti-PD-1 IgG1 mutant of 14C12H1L1(hG1WT) with L234A, L235A and G237A (EU numbering) in the heavy chain

Kd (Serum complement C1q [10]): 4.43 nM
koff (Serum complement C1q [10]): 0.0105 s⁻¹
kon (Serum complement C1q [10]): 2.38e+06 M⁻¹ s⁻¹
B5: 5C10H2L2-IgG1mt (antibody)
chain 1: not shown
chain 2: EIVLTQSPDTLSVTPKEKVTLTCRASQSIGTNIHWFQQKPGQSPKLLIKYASESISGVPSRFSGSGSGTDFTLTINSVEAEDAATYYCQQSNSWPYTFGQGTKLEIKRTVAAPSVFIFPPSDEQLKSGTASVVCLLNNFYPREAKVQWKVDNALQSGNSQESVTEQDSKDSTYSLSSTLTLSKADYEKHKVYACEVTHQGLSSPVTKSFNRGEC

Continued, binder first:

B1: 14C12H1L1(hG1DM) (antibody, human IgG1, kappa, L234A L235A)
heavy: not shown
light: B4 light
notes: Humanized anti-PD-1 IgG1 mutant of 14C12H1L1(hG1WT) with L234A and L235A in the heavy chain
binding result (Fc receptor FcγRIIb [1]): no binding (tested: 200 nM)
binding result [2]: no binding (tested: 500 nM)
Kd [3]: 612 nM
koff [3]: 0.0824 s⁻¹
kon [3]: 135000 M⁻¹ s⁻¹
Kd [4]: 621 nM
binding result (Serum complement C1q [5]): no binding (tested: 20 nM)

B2: 14C12H1L1(hG4) (antibody, human IgG4 S228P, kappa)
heavy: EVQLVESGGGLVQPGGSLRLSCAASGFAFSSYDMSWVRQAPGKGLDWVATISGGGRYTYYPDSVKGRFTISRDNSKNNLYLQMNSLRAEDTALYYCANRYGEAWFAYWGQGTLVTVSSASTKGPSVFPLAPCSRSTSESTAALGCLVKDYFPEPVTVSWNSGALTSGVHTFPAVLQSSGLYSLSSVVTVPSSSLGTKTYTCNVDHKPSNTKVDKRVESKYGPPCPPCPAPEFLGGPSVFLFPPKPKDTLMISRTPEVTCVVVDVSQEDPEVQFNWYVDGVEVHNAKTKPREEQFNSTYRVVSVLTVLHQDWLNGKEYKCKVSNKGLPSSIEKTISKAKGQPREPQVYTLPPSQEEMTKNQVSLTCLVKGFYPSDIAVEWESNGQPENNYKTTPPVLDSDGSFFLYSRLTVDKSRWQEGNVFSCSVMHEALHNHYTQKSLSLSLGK
light: B4 light
notes: Humanized anti-PD-1 antibody with the variable regions of 14C12H1L1(hG1WT), Ig gamma-4 chain C region (P01861.1) and Ig kappa chain C region (P01834)
Kd (Fc receptor FcγRIIa_R131): 31.3 nM
koff (Fc receptor FcγRIIa_R131): 0.011 s⁻¹
kon (Fc receptor FcγRIIa_R131): 350000 M⁻¹ s⁻¹
Kd (Fc receptor FcγRI [6]): 5.8 nM
koff (Fc receptor FcγRI [6]): 0.00369 s⁻¹
kon (Fc receptor FcγRI [6]): 637000 M⁻¹ s⁻¹
binding result [2]: no binding (tested: 500 nM)
Kd (Fc receptor FcγRIIb [7]): 56.2 nM
koff (Fc receptor FcγRIIb [7]): 0.0162 s⁻¹
kon (Fc receptor FcγRIIb [7]): 288000 M⁻¹ s⁻¹
Kd (Fc receptor FcγRIIa_H131 [8]): 50.7 nM
koff (Fc receptor FcγRIIa_H131 [8]): 0.013 s⁻¹
kon (Fc receptor FcγRIIa_H131 [8]): 257000 M⁻¹ s⁻¹
binding result (Serum complement C1q [5]): no binding (tested: 20 nM)

B3: 14C12H1L1(hG1WT) (antibody, human IgG1, kappa)
heavy: not shown
light: B4 light
notes: Humanized anti-PD-1 antibody, wild-type human IgG1 constant region
Kd (Fc receptor FcγRIIa_R131): 34.6 nM
koff (Fc receptor FcγRIIa_R131): 0.0228 s⁻¹
kon (Fc receptor FcγRIIa_R131): 660000 M⁻¹ s⁻¹
Kd (Fc receptor FcγRI [6]): 2.52 nM
koff (Fc receptor FcγRI [6]): 0.00175 s⁻¹
kon (Fc receptor FcγRI [6]): 694000 M⁻¹ s⁻¹
Kd [9]: 102 nM
koff [9]: 0.0256 s⁻¹
kon [9]: 252000 M⁻¹ s⁻¹
Kd (Serum complement C1q [10]): 1.35 nM
koff (Serum complement C1q [10]): 0.00654 s⁻¹
kon (Serum complement C1q [10]): 4.83e+06 M⁻¹ s⁻¹
Kd [3]: 65.4 nM
koff [3]: 0.0171 s⁻¹
kon [3]: 261000 M⁻¹ s⁻¹
Kd (Fc receptor FcγRIIb [7]): 61.3 nM
koff (Fc receptor FcγRIIb [7]): 0.0195 s⁻¹
kon (Fc receptor FcγRIIb [7]): 318000 M⁻¹ s⁻¹
Kd (Fc receptor FcγRIIa_H131 [8]): 57.4 nM
koff (Fc receptor FcγRIIa_H131 [8]): 0.0267 s⁻¹
kon (Fc receptor FcγRIIa_H131 [8]): 465000 M⁻¹ s⁻¹
